In article PMC11407090, “Kinetic and in silico structural characterization of norbelladine O-methyltransferase of Amaryllidaceae alkaloids biosynthesis” (The Journal of Biological Chemistry, 2024):

Columns and labels:
[1] = substrate: Oc1ccc(CCNCc2ccc(O)c(O)c2)cc1; test: LC-MS/MS methyltransferase assay, nonlinear regression; assay type: biochemical, Narcissus papyraceus; conditions: SAM as methyl donor, Mg^2+, product 4'-O-methylnorbelladine, optimized condition pH 7.4, 45 °C, 30 min
Source text: (§1) LC-MS/MS methyltransferase assay, nonlinear regression on NpOMT

[2] = substrate: O=Cc1ccc(O)c(O)c1; test: as above; assay type: biochemical, Narcissus papyraceus; conditions: SAM as methyl donor, Zn^2+, product vanillin (3-O-methylation, major product), optimized condition pH 7.4, 45 °C
Source text: as §1

B1: NpOMT (Narcissus papyraceus) (protein)
chain: MGASQDDYALIHKNILHSEELLKYILETSAYPREHEQLKGLREVTEKHEWSSALVPADEGLFLSMLLKLMNAKRTIEIGVYTGYSLLTTALALPEDGKITAIDVNKSFFEIGLPFIQKAGVEHKINFIESEALPVLDQMVQEMKEEDLYDYAFVDADKSNYANYHERLVKLVRVGGAILYDNTLWYGSVAYPEYPGLHPEEEVARLSFRQLNTLLAADPRVEISQVSIGDGVTICRRLY
notes: homodimer only modelled
**Q.** Which Km [1] does the source give for B1 here?
**A.** The Km was 169 ± 19 µM.

**Q.** What about the Vmax [1] of the same protein?
**A.** The Vmax was 10.9 µM/min.

**Q.** And the kcat [1]?
**A.** The kcat was 0.0362 ± 0.004 s⁻¹.

**Q.** What about the kcat/Km [1] of the same protein?
**A.** Its kcat/Km is 214 M⁻¹ s⁻¹.

**Q.** What about the Km [2] of the same protein?
**A.** Its Km is 491 ± 51 µM.

**Q.** What about the Vmax [2] of the same protein?
**A.** Its Vmax is 19.1 µM/min.

**Q.** And the kcat [2]?
**A.** The kcat was 0.0637 ± 0.0025 s⁻¹.

**Q.** And the kcat/Km [2]?
**A.** Its kcat/Km is 130 M⁻¹ s⁻¹.
